Test results reported in US7531337.

B1: CobB sirtuin of S. enterica (purified, homogeneous) (protein)
chain: MQSRRFHRLSRFRKNKRLLRERLRQRIFFRDRVVPEMMENPRVLVLTGAGISAESGIRTFRAADGLWEEHRVEDVATPEGFARNPGLVQTFYNARRQQLQQPEIQPNAAHLALAKLEEALGDRFLLVTQNIDNLHERAGNRNIIHMHGELLKVRCSQSGQILEWNGDVMPEDKCHCCQFPAPLRPHVVWFGEMPLGMDEIYMALSMADIFIAIGTSGHVYPAAGFVHEAKLHGAHTVELNLEPSQVGSEFEEKHYGPASQVVPEFVDKFLKGL

Assays:
[1] = target: Acetylated acetyl-CoA synthetase (Acs^Ac), Acs of S. enterica isolated from a cobB- strain (S. enterica) (UniProt Q8ZKF6); assay: cell-based or functional assay
[2] = target: T1, Acetylated acetyl-CoA synthetase (Acs^Ac), Acs of S. enterica isolated from a cobB- strain
T1 chain: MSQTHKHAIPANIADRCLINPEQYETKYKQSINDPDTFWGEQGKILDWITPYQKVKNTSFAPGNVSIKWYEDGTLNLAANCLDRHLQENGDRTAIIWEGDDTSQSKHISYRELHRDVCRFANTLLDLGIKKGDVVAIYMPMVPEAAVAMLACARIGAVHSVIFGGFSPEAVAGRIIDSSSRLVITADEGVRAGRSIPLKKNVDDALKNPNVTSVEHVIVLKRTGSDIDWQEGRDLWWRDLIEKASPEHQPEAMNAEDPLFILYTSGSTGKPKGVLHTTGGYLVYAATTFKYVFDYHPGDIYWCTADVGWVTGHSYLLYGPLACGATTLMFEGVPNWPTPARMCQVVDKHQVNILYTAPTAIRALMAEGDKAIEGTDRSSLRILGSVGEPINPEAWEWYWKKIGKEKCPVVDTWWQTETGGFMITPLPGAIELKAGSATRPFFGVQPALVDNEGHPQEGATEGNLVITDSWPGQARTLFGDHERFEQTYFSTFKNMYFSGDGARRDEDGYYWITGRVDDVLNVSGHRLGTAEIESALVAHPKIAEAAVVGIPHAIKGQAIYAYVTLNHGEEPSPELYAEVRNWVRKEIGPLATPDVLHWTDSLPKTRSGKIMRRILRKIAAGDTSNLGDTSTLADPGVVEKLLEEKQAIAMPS

[3] = scale: pmoles of acetyl-CoA formed min^-1 mg of protein^-1

| Molecule | Acs Sp. Act. (purified Acs from CobB- host, plus BSA, CobB, NAD+) (nmoles of acetyl-CoA formed min^-1 mg^-1) [1] | Acs Sp. Act. (purified Acs from CobB- host, plus CobB, NAD+) (nmoles of acetyl-CoA formed min^-1 mg^-1) [1] | Acs Specific Activity (crude cell-free extract of Acs+ cobB- strain, plus 10 µg CobB + NAD+) [1, 3] | Acs Specific Activity (crude cell-free extract of Acs+ cobB- strain, plus 10 µg CobB) [1, 3] | reactivity of Acs with anti-acetyl-lysine antibody in a time-course immunoblot [2] |
| --- | --- | --- | --- | --- | --- |
| CobB sirtuin of S. enterica (purified, homogeneous) (from UniProt P0A2F2 1-273) (enzyme) | 483 | 480 | 490 | 42 |  |
| B1 |  |  |  |  | The decreased reactivity of Acs with the antibody was dependent on the presence of NAD^+ and CobB in a time-course experiment |
